Experiments:
[1] = Quantum yield determination; assay type: physicochemical; settings: for Quant. Yield: Table 5, in PBS
Outline: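 Relative quantum yields in PBS, probe absorbance adjusted below 0.1, references IR-783 (0.043), fluorescein (0.18), Cy3 (0.31). Excitation/emission ranges: PN(783) 730 nm/765–870 nm; PN(545) 515 nm/538–700 nm; PN(497) 450 nm/475–620 nm, maximum emission used. Triplicate, mean±SD.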

[2] = test system: HT-29, a human colon carcinoma cell line; experiment: PN and peptide binding to cells (non-specific binding, FACS); assay type: cell-based; settings: HT-29 cells, 30 min at 37° C., FACS
Outline: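 Cells seeded at 5×10^5 cells/well the day before, then rinsed and incubated 30 min at 37 °C in 2% FBS/DPBS (+Ca, +Mg) with nanoprobes (added as a 2 μM solution; concentration set spectrophotometrically via dye extinction coefficients). After trypsin/EDTA detachment, cell-associated fluorescence was read by FACS.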

[3] = PN pharmacokinetics, blood fluorescence fit to two-compartment model; assay type: in vivo, mouse; settings: for Alpha half-life / Alpha rate / Beta half-life / Beta rate: nude mice, IV, 10 nmole, biexponential fit; for k elim half-life / k elim rate / k perm half-life / k perm rate / k vas return half-life / k vas return rate: two-compartment model micro constant
Protocol: Groups of 5 nude mice (female; 25-30 g; 6-8 weeks old; nu/nu) were injected (tail vein, IV) with 10 nmole of PN(783)4.3 or PN(783)10.0. 50 μl of blood was collected from tail tip at the indicated times. The blood was processed as above, and diluted (25 μl plasma, 700 μl of PBS). Fluorescence was measured with Cary Eclipse Fluorescence Spectrophotometer, excitation at 765 nm and emission from 790 to 880 nm. The fluorescence intensity at 806 nm was plotted over time, and the data was fit with two-phase decay curve. The fast and slow distribution half-life was given by the two-phase decay fit with Graphpad Prism software.
From the two-phase decay fit, a biexponential equation for blood concentration as a function of time, was obtained. By the relation of macro constants and micro constants, micro constants k's can be obtained, and the half-life was calculated by as described in Rosenbaum, S. E. Basic Pharmacokinetics and Pharmacodynamics: An Integrated Textbook and Computer Simulations, (John Wiley and Sons, Hoboken, N.J., 2011). The curve for interstitium concentration vs. time was fit with MATLAB based on the curve of blood concentration vs. time.
Serum fluorescence data from FIG. 24b and FIG. 24c was analyzed using the two-compartment model as described in Rosenbaum, S. E. Basic Pharmacokinetics and Pharmacodynamics: An Integrated Textbook and Computer Simulations, (John Wiley and Sons, Hoboken, N.J., 2011). Data were first fit to biexponential equation, yielding values of Alpha, Beta (apparent decay constants) and values of A and B as shown in equations 1 and 2 below.
By the relation of macro constants and micro constants, […]

[4] = Circulating form of PN's (FPLC of serum after IV injection); assay type: in vivo, mouse; settings: nude mice, 20 nmoles
Protocol: 20 nmoles of PN(783)4.3, PN(783)6.1, or PN(783)10.0 was injected (IV, tail vein) into nude mice (female; 25-30 g; 6-8 weeks old; nu/nu). At the indicated time, 50 μl of blood was collected with microhematocrit capillary tube (Fisher Scientific) from the tail, and transferred to Eppendorf microcentrifuge tube with anticoagulant (EDTA) coating (Fisher Scientific). Tubes were centrifuged (5000 rpm for 5 minutes), and the supernatant was injected to the FPLC, a ÄKTA Purifier 10 with Superdex™ 200 10/300GL column.

Substance	Quantum Yield ([1]; Table 3B, IR-783 dipeptides)	Quant. Yield [1]	Cell NSB (percent of cells with fluorescence higher than unstained cell) [2]	Alpha half-life [3]	Alpha rate [3]	Beta half-life [3]	Beta rate [3]	k elim half-life [3]	k elim rate [3]	k perm half-life [3]	k perm rate [3]	k vas return half-life [3]	k vas return rate [3]	circulating form after injection (FPLC elution vs pre-injection sample) [4]
(DOTA)Lys(PEG5K)-Cys(IR-783) [PN(783)4.3]	0.17	0.16	20%	0.13 h	5.30 h⁻¹	1.64 h	0.42 h⁻¹	1.01 h	0.68 h⁻¹	0.40 h	1.74 h⁻¹	0.20 h	3.30 h⁻¹	identical for pre-injection samples and for sera from injected mice
(DOTA)Lys(PEG30K)-Cys(IR-783) [PN(783)10.0]	–	0.16	18%	0.51 h	1.36 h⁻¹	7.0 h	0.099 h⁻¹	4.2 h	0.24 h⁻¹	1.02 h	0.67 h⁻¹	1.23 h	0.56 h⁻¹	circulates at its pre-injection size

Source: patent US20150258217A1, “Methods of Synthesizing and Using Peg-Like Fluorochromes” (THE GENERAL HOSPITAL CORPORATION, priority 2012, published 2015)
